{
  "source": "patent US20260116958A1",
  "about": "(University of California, published 2026)",
  "key": {"[1]": {"molecular_target": "inactive BoNT/G (BoNT/Gi) (Clostridium botulinum) (UniProt Q60393)", "assay": "flow cytometry, scFv on yeast"}, "[2]": {"molecular_target": "inactive BoNT/G (BoNT/Gi) (Clostridium botulinum) (UniProt Q60393)", "assay": "flow cytometry, scFv on yeast surface"}, "[3]": {"molecular_target": "inactive BoNT/G (BoNT/Gi) (Clostridium botulinum) (UniProt Q60393)", "assay": "flow cytometry, scFv on yeast", "remark": "listed apart in the source"}, "[4]": {"molecular_target": "T1, inactive BoNT/G (BoNT/Gi) (Clostridium botulinum, UniProt Q60393 1-1297)", "T1 sequence": "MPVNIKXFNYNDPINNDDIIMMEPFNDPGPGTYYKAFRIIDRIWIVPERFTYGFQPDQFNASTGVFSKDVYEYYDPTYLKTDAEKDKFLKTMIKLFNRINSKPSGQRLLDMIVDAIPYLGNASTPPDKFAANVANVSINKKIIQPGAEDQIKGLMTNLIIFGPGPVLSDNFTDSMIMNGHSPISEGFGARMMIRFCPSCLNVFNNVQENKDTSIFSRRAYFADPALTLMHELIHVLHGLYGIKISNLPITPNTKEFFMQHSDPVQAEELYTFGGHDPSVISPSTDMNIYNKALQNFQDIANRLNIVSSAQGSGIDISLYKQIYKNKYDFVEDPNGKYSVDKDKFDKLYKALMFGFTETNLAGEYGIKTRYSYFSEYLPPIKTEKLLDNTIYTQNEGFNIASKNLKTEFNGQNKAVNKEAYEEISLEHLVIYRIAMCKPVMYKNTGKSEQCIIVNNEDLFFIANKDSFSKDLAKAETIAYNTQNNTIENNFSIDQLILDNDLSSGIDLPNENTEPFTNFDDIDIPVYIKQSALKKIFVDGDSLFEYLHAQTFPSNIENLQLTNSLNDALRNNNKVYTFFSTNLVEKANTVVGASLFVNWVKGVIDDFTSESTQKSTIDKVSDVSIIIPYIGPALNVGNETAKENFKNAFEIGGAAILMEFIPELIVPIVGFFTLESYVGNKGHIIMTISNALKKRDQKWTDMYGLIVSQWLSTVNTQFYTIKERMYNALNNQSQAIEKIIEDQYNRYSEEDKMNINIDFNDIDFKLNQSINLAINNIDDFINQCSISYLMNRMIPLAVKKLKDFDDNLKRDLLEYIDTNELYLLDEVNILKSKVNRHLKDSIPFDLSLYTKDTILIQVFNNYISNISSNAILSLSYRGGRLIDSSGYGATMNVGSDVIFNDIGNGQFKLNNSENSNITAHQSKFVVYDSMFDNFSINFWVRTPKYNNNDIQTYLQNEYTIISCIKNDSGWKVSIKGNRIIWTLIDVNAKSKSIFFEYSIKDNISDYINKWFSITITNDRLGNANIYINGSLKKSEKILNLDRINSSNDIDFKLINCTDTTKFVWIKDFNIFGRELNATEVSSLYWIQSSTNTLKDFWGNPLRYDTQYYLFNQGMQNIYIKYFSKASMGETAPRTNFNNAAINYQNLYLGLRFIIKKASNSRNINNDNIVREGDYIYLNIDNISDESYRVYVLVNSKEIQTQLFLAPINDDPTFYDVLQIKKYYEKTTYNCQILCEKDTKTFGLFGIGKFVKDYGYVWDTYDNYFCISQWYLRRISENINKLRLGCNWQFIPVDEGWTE", "assay": "scFv on yeast surface"}, "[5]": {"molecular_target": "T1, inactive BoNT/G (BoNT/Gi)", "assay": "FACS, scFv on yeast"}, "[6]": {"molecular_target": "T1, inactive BoNT/G (BoNT/Gi)", "assay": "scFv on yeast"}, "[7]": {"molecular_target": "T1, inactive BoNT/G (BoNT/Gi)", "assay": "titration on yeast-displayed scFv, flow cytometry, fit y = m1 + m2*M0/(m0+m3)"}, "[8]": {"molecular_target": "T1, inactive BoNT/G (BoNT/Gi)", "assay": "flow cytometry, scFv on yeast"}, "[9]": {"molecular_target": "T1, inactive BoNT/G (BoNT/Gi)", "assay": "titration on yeast-displayed scFv, flow cytometry, fit y = m1 + m2*M0/(m0+m3)", "remark": "listed apart in the source"}, "[10]": {"molecular_target": "T1, inactive BoNT/G (BoNT/Gi)", "assay": "titration on yeast-displayed scFv, flow cytometry, fit y = m1 + m2*M0/(m0+m3)", "remark": "listed apart in the source"}, "[11]": {"molecular_target": "inactive BoNT/G (BoNT/Gi) (Clostridium botulinum) (UniProt Q60393)", "assay": "scFv on yeast surface"}, "[12]": {"molecular_target": "inactive BoNT/G (BoNT/Gi) (Clostridium botulinum) (UniProt Q60393)", "assay": "flow cytometry, scFv on yeast; against hu6G6 Wt"}, "[13]": {"molecular_target": "inactive BoNT/G (BoNT/Gi) (Clostridium botulinum) (UniProt Q60393)", "assay": "FACS, scFv on yeast"}, "[14]": {"molecular_target": "inactive BoNT/G (BoNT/Gi) (Clostridium botulinum) (UniProt Q60393)", "assay": "scFv on yeast"}, "[15]": {"molecular_target": "T1, inactive BoNT/G (BoNT/Gi)", "assay": "titration on yeast-displayed scFv, flow cytometry, fit y = m1 + m2*M0/(m0+m3)", "remark": "listed apart in the source"}},
  "data": [
    {"binder": "hu6G9 scFv (scFv) scFv: QVQLVQSGAEVKKPGASVKMSCKASGYTFTSYWMHWVRQAPGQGLEWIGYINPSTGYTEYNQKFKDRATLTADKSTSTAYMELRSLRSDDTAVYYCARGGNYVDYWGQGTTLTVSSVDLKSGGSTSGSGKPGSGEGSSGSARDIQMTQSPSTLSASVGERVTITCRASQGISSWLAWYQQKPGKAPKRLIYAVSTLQTGVPSRFSGSGSGTDLTLTINSLQPEDFATYYCQHLNSYPLTFGGGTKVEIK", "values": [
      {"measurement": "Kd", "setting": "[1]", "value": 3.78, "unit": "nM"},
      {"measurement": "Kd", "setting": "[2]", "value": 18.8, "unit": "nM"},
      {"measurement": "Kd", "setting": "[3]", "value": 18.8, "unit": "nM"}
    ]},
    {"binder": "6G6 scFv (scFv, V domains shown) VH: EVQLQQSGAELVKPGASVKLSCTASGFNIKDTYMHWVKQRPEQGLEWIGRIDPANGNTKYDPKFQGKATITADTSSNTAYLQLSSLTSEDTAVYYCASGPNYYGTTWFAYWGQGTTVTVSS VL: QIVLTQSPAILSASPGEKVTMTCRASSSVSYMHWYQQKPGSSPRLWIYRTSNLASGVPARFSGSGSGTSYSLTISSMEAEDAATYYCQQYHSYPRTFGGGTKLEIKR", "values": [
      {"measurement": "Kd", "setting": "[4]", "value": 17.7, "unit": "nM"}
    ]},
    {"binder": "hu6G11 scFv (scFv, V domains shown) VH: QVQLVQSGAEVAKPGASVKMSCKASGYTFTSYWMHWVRQAPGQGLEWIGYINPSTGYTEYNQKFKDRATLTADKSTSTAYMELSSLRSEDTAVYYCARGYFSFAYWGQGTLVTVSS VL: DIVMTQSPSSLSASVRDRVTITCQASHDIKNFLNWFQQKPGKAPKLLVYDASNLQVGVPSRFSASGYGTEFTLTISSLQPEDFATYYCQQANSFPRTFGQGTKVEIKR", "values": [
      {"measurement": "Kd", "setting": "[5]", "value": 4.5, "unit": "nM"},
      {"measurement": "Kd", "setting": "[6]", "value": 4.57, "unit": "nM"},
      {"measurement": "fold improvement in BoNT/Gi binding", "setting": "[6]", "value": 25, "unit": "fold"}
    ]},
    {"binder": "6G7.1 scFv (scFv, V domains shown) VH: DVQLQESGPELVKPGASVKVSCKASDYSFTDYNIYWVKQSHGKSLEWIGYIDPYNGGTSYNQKFKGKATLTVDKSSSTAFMYLNSLTSEDSAVYYCALYGYDPDYIDYWGQGTTLTVSS VL: QIVLTQSPAIMSASPGEKVTITCSASSSVSYLHWFQQKPGTSPKLWIYSTSNLASGVPARFSGSGSGTSYSLTISRMEAEDAATYYCQQRSSYPYTFGGGTKLEIKA", "values": [
      {"measurement": "Kd", "setting": "[4]", "value": 0.69, "unit": "nM"},
      {"measurement": "Kd", "setting": "[5]", "value": 0.27, "unit": "nM"},
      {"measurement": "Kd", "setting": "[7]", "value": 0.27, "unit": "nM"},
      {"measurement": "Kd", "setting": "[8]", "value": 2.1, "unit": "nM"},
      {"measurement": "Kd", "setting": "[9]", "value": 1.29, "unit": "nM"}
    ]},
    {"binder": "6G10 scFv (scFv, V domains shown) VH: EVQLQQSGPELVKPGASVKISCKASGYSFTGYFMHWVKQSHVKSLEWIGRINPYNGDIIYNQNFKDKASLTVDKSSSTAYMELHSLTSEDSAVYYCASLFGLYYFDYWGQGTTLTVSS VL: EIVLTQSPAIMSASPGEKVTMTCSASSSVSYMHWYQQKSGTSPKRWIYDTSKLASGVPARFSGSGSGTSYSLTISSMEAEDAATYYCQQWSSNPLTFGAGTKLELKR", "values": [
      {"measurement": "Kd", "setting": "[10]", "value": 2.48, "unit": "nM"},
      {"measurement": "Kd", "setting": "[5]", "value": 2.48, "unit": "nM"}
    ]},
    {"binder": "hu6G6.1 scFv (scFv) scFv: QVQLVQSGAEVKKPGASVKLSCKASGFNIKDTYMHWVRQAPGQGLEWIGRIDPENGNTKYDPKFQGRATITAYKSINTAYLELSRLRSDDTAVYYCASGPNYYGTTWFAYWGQGTTVTVSSVDLKSGGSTSGSGKPGSGEGSSGSAREIVLTQSPSTLSASVGDRVTITCRASHGISNYLAWYQQKPGRAPKLLIYKASTLHIGVPSRFSGSGSGTEFALTISSLQPDDFSTYYCQQYNSYLPHTFGQGTRLEIK", "values": [
      {"measurement": "Kd", "setting": "[11]", "value": 1.15, "unit": "nM"},
      {"measurement": "Kd", "setting": "[3]", "value": 4.27, "unit": "nM"},
      {"measurement": "Improvement over WT", "setting": "[12]", "value": 5.5, "unit": "fold"},
      {"measurement": "Kd", "setting": "[13]", "value": 3.4, "unit": "nM"}
    ]},
    {"binder": "Hu6G6.2 scFv (scFv) scFv: QVQLVQSGAEVKKPGASVKLSCKASGFNIKDTYMHWVRQAPGQGLEWIGRIDPENGNTKYDPKFQGRATITAYKSINRAYLELSRLRSDDTAVYYCASGPNYYGTTWFAYWGQGTTVTVSSVDLKSGGSTSGSGKPGSGEGSSGSAREIVLTQSPSTLSASVGDRVTITCRASHGISNYLAWYQQKPGRAPKLLIYKASTLHIGVPSRFSGSGSGTEFALTISSLQPDDFSTYYCQQYNSYLPHTFGQGTRLEIK", "values": [
      {"measurement": "Kd", "setting": "[14]", "value": 0.22, "unit": "nM"},
      {"measurement": "Kd", "setting": "[13]", "value": 0.22, "unit": "nM"}
    ]},
    {"binder": "Hu6G7.2 scFv (scFv, V domains shown) VH: QVQLVQSGAEVKKPGASVKVSCKASDYSFTDYNIYWVRQTPGQGLEWIGYIDPYNGGTSYNQKFKGRATLTVDKSISTAYMELSRLRSDDTAVYYCALYGYDPDYTEYWGQGTTLTVSS VL: DIVLTQSPASMAVSPGQRVTITCSASSSVSYLHWFQQKPGQSPKLWIYSTSNLASGVPARFSGSGSGTDYTLTINPMEAEDTATYYCQQRSSYPYTFGQGTKLEIKR", "values": [
      {"measurement": "Kd", "setting": "[5]", "value": 1.42, "unit": "nM"},
      {"measurement": "Kd", "setting": "[7]", "value": 1.42, "unit": "nM"},
      {"measurement": "Kd", "setting": "[9]", "value": 3.93, "unit": "nM"}
    ]},
    {"binder": "6G9 scFv (scFv, V domains shown) VH: EVQLQQSGDDLVKPGASVKMSCKASGYTFTSYWMHWVKQRPGQGLEWIGYINPSTGYTEYNQKFKDKATLTADKSSSTAYMQLSSLTSEDSAVYYCARGGNYVDYWGQGTTLTVSS VL: EIVLTQSPAIMSASPGEKVTISCSASSSVSYMYWYQQKPGSSPKPWIYRTSNLASGVPARFSGSGSGTSYSLTISSMEAEDAATYYCQQWSSNPYTFGGGTKLEIKR", "values": [
      {"measurement": "Kd", "setting": "[5]", "value": 18.8, "unit": "nM"},
      {"measurement": "Kd", "setting": "[15]", "value": 5.6, "unit": "nM"}
    ]}
  ]
}
